In patent publication US20250136720A1 (Boehringer Ingelheim, published 2025) one finds Kd and MFI data, which are given here for eleven molecules.

Sequences and labels used below:
B1: FAP-C3 parental (scFv)
scFv: EIVLTQSPGTLSLSPGERATLSCRASQSVGHYLAWYQQKPGQAPRLLIYDASNRAIDIPDRFSGSGSGTEFTLTISRLEPEDFAVYYCQQYYNNWPPLTFGGGTKVEIKGGGGSGGGGSGGGGSGGGGSDVQLVESGGGVVRPGESLTLSCAASGFTFSNYDMGWVRQAPGEGLEWVSGIRGRGGSTYYADSVKGRFTISRDSSKNTLYLQMNSLRAEDTAVYYCAKENNRHSFFEYWGLGTLVTVSS
notes: the format in the KD assay is told only as 'SCFV'; also called FAP-C3SCFVWT; FAP #4
B2: FAP-C3 VK1-VH14 (FAP #5) (scFv)
scFv: B1 scFv with N94D, N160S, D191E, D202E, N230E
notes: format in the KD assay not described; also called FAP-C3VK1VH14 (ND, SY, ES, ES, ER); FAP-C3-VK1-VH4
B3: FAP-A11 parental (scFv)
scFv: EIVLTQSPGTLSLSPGERATLSCRASQPINNYLAWYQQKPGQAPRLLIFSASNRATGIPDRFSGSGSGTEFTLTISSLEPEDFAVYYCQQYYDWPPYTFGGGTKVEIKGGGGSGGGGSGGGGSGGGGSDVQLVESGGGLVQPGGSLRLSCAASGFSMSNFAMTWVRQAPGEGLEWVSGIRGSGTTYYADSVKGRFTVSRDNSKNTLYLQMNSLRAEDTAIYYCAKTWGTEYFDYWGLGTLVTVSS
notes: the format in the KD assay is told only as 'SCFV'; also called FAP-A11SCFV(WT); FAP #1
B4: FAP-A11 VK3-VH1 (scFv)
scFv: B3 scFv with N30R, N31S, D189E
notes: also called FAP-A11VK3VH1 (RS, NNN)
B5: FAP-A11 VK7-VH1 (FAP #3) (scFv)
scFv: B3 scFv with N30S, N31S, D189E
notes: format in the KD assay not described; also called FAP-A11VK7VH1 (SS, NNN)
B6: FAP-A11 VK3-VH13 (FAP #2) (scFv)
scFv: B3 scFv with N30R, N31S, D189E, N201Q, N204Q, N211Q
notes: format in the KD assay not described; also called FAP-A11VK3VH13 (RS, QQQ); A11 VK3/VH3
B7: FAP.84.C11 (Fc fusion)
VH: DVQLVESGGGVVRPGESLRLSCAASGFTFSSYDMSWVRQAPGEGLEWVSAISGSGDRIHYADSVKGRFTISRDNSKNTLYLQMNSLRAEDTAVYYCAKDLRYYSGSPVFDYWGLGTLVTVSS
VL: EIVLTQSPGTLSLSPGERAILSCRASQTVGSRLAWYQQKPGQAPRLLIYAASSRATGIPDRFSGSGSGTEFTLTISSLQSEDFAVYYCQQYYDWPPLTFGGGTKVEIK
notes: Tested as scFv-Fc; orientation, linker and Fc of this construct not specified
B8: FAP.84.B7 (Fc fusion)
VH: DVQLVESGGGVVRPGESLRLSCAASGFIFRNYAMTWVRQAPGEGLEWVSTIRSSGSGRTDTYYADSVKGRFTISRDSSNNTLYLQMNSLRAEDTAVYYCAKSGTFWDTFFDYWGLGTLVTVSS
VL: EIVLTQNPGTLNLSPGERATLTCRASQSAGRNLAWYQQKPGQTPRLLIYDVNTRATGIPDRFSGSGSGTEFNLTISSLQNEDFAVYYCQQYNNWPPLTFGGGTKVEIK
notes: as for B7
B9: FAP.84.B2 (Fc fusion)
VH: DVQLVESGGGVVRPGESLRLSCAASGFSFSSYAMNWVRQAPGKGLEWVSAISGSGGGTFYADSVKGRFTISRDNSKNTLYLQMNSLRAEDTAIYYCAKDPFGYGFFDSWGLGTLVTVSS
VL: EIVMTQSPATLSVSPGDRATLSCRASQTVGSKLAWYQQKPGQAPRLLIYAASSRATGIPDRFSGSGSGTDFTLTISSLEPEDFAVYYCQQYYNWPPAFGGGTKVEIK
notes: as for B7
B10: FAP.84.B8 (Fc fusion)
VH: DVQLVESGGSVVRPGESLRLSCAASGFPFSSYPMTWVRQAPGEGLEWVSSIRGSGDRIHYADSVKGRFTISKDSSNNTLYLQMNSLRAEDTAVYYCATGWNFFDYWGLGTLVTVSS
VL: EIVLTQSPGTLSLSPGERATLSCRASQTVATYLAWYQQKPGQAPRLLIYAAISRATGIPDRFSGSGSGTDFTLTITRLEPEDSAVYYCQQYKDWPPLTFGGGTKVEIK
notes: as for B7
B11: FAP.84.A9 (Fc fusion)
VH: B10 VH with S10G, E16G, G53P, S54I, K72R
VL: B10 VL with S22T, S63I, T76N, S83F
notes: as for B7

Residue numbers refer to the chain shown, from its start. Where only a bound is given, the exact number is not on record here.

One assay deals with T1, mouse FAP protein (mouse, UniProt P97321 1-761).
T1 construct: also called murine FAP
T1 sequence (P97321 other isoform, or with tags, fused parts or gaps limits assumed, form in doubt): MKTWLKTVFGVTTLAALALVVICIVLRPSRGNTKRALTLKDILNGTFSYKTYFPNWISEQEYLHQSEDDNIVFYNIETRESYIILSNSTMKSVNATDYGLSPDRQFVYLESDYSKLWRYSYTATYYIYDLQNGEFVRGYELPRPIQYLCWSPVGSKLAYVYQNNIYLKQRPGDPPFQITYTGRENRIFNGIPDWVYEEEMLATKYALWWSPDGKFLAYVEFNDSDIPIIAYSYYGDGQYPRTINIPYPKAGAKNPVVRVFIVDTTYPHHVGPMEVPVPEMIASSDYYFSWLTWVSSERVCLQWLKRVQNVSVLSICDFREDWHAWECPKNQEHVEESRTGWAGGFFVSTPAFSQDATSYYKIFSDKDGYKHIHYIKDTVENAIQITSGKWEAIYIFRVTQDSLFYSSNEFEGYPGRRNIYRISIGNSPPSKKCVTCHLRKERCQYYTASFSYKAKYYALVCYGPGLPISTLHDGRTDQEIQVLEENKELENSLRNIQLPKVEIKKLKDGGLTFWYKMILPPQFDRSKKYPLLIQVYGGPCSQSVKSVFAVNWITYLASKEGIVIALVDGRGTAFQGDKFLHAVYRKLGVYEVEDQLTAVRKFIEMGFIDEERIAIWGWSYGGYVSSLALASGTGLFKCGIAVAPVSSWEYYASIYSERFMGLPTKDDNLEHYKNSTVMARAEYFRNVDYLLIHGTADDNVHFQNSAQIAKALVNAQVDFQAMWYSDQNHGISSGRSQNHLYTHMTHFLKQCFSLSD
The experiment in a line: method not stated.
As a reminder, the Kd is the equilibrium constant for the complex coming apart. The low end stands for a tighter complex, the high end for a looser complex. Regarding B1, the dissociation constant Kd is 33 nM.
For the molecule B2, the Kd amounted to 4.6 nM.
With B3, the Kd was less than 0.02 nM.
For B4, the Kd was less than 0.02 nM.
Still for that read-out and setting: the same measure for B5: less than 0.02 nM; for B6: less than 0.02 nM.

The target of another assay is human FAP protein (human, UniProt Q12884 26-760, limits assumed). In words: method not stated.
Regarding B1, the Kd was found to be 0.036 nM.
Still for that read-out and setting: then B2, with 0.024 nM.
Molecule B3 had a Kd of 1.04 nM.
The same measure, in the same setting: then B4, with 0.199 nM.
The same measure, in the same setting: then B5, with 1.5 nM; and B6, with 0.538 nM.

In a further assay the target is T2, Murine Fibroblast Activation Protein (FAP) on B16 cells (mouse, UniProt P97321 1-761).
T2 construct: B16 cells transduced with murine FAP cDNA; also called B16-FAP
T2 sequence (P97321 other isoform, or with tags, fused parts or gaps): as the sequence (P97321 other isoform, or with tags, fused parts or gaps limits assumed, form in doubt) above
In words: flow cytometry, scFv-Fc on B16-FAP cells.
The molecule B7 showed an MFI of 1430 MFI.
With B8, the MFI is 1610 MFI.
Same read-out and setting: then B9, with 2260 MFI; and B10, with 1490 MFI.
On to B11, for which the MFI was 1300 MFI.

Another assay has as its target T3, Human Fibroblast Activation Protein (FAP) on HT1080 cells (human, UniProt Q12884 1-760).
T3 construct: HT1080 cells transduced with human FAP cDNA; also called HT1080-FAP; FAP+ HT1080
The experiment in a line: flow cytometry, scFv-Fc on HT1080-FAP cells. (In flow cytometry, cells or beads pass a laser one at a time.)
For the molecule B7, the MFI was found to be 27000 MFI.
As for B8, the MFI came out at 24000 MFI.
As for B9, the MFI was 17300 MFI.
Same read-out and setting: the same measure for B10: 24300 MFI.
The same measure, in the same setting: then B11, with 25400 MFI.
